In paper PMC7337494 (The Journal of Cell Biology, 2020):

Target: the molecule itself
Test: AUC

B1: 217-MGD (extended OPA1-MGD, residues 217–580 and 938–960 connected by the artificial linker) (domain or fragment)
chain: not shown
  stoichiometry N: 2
